These results are taken from patent US9303249B2, “High concentration α-glucosidase compositions for the treatment of Pompe disease” (Amicus Therapeutics, Inc., priority 2012, dated 2016).

Series [1] can be described thus: Solubility of Lumizyme® in the presence of 1-DNJ-HCl and excipients (Example 12). The series is classed as physicochemical. As for the experimental part: A vial of Lumizyme® containing 52.5 mg protein, 210 mg mannitol, 0.5 mg polysorbate 80, 9.9 mg Na2HPO4×7H2O, and 31.2 mg NaH2PO4×H2O was dissolved in a minimal volume of water (1 mL added) yielding 1.2 mL of protein solution. Five 240-μL aliquots (each containing 10.5 mg protein) were transferred to Amicon Ultra 0.5 mL 30 kDa cutoff centrifugal filter devices and centrifuged for 10 min at 14,000×g in an Eppendorf centrifuge to obtain about 50 μL of retentate.
The original excipients present in the composition, i.e., mannitol and polysorbate 80 were exchanged for new excipients to test protein solubility (keeping the same buffer conditions). The following excipient solutions were prepared for the exchange using the original phosphate buffer:
For exchanging excipients, 5.2 mg Na2HPO4 and 27.1 mg NaH2PO4 were dissolved in 10.3 mL water to prepare the washing/excipient exchange phosphate buffer of approximately 26 mM. A volume of 8 mL of the buffer for excipient exchange was supplemented with 160 mg/mL of the small molecule ligand (to prepare excipient 1, 3, 4 and 5 solutions), while 2 mL was supplemented with 32 mg/mL ligand for excipient 2 (100 mM Arginine). Each of the excipients were dissolved in 2 mL of this buffer at the concentrations listed above.
An excipient solution was added to each separate filter device to achieve a total volume of 0.5 mL. Each filter device was centrifuged for 15 min at 14,000×g in a bench top Eppendorf centrifuge to retain approximately 25 μL. The units were re-filled with the same excipient solution to 0.5 mL and centrifuged again (this process was repeated 2 times). This procedure efficiently replaced mannitol and polysorbate 80 with excipients described above, diluting the original constituents by about 1:1000. All filtrates for each excipient were collected and examined for any protein leaks through the filter.
Each centrifugal filter device was inverted in a clean tube, and the concentrated protein solution was collected from each filter device by centrifugation for 2 min at 1000×g. The volume of each sample was determined (66 μL, corresponding to a target protein concentration of 160 mg/mL), and it was confirmed that no visible precipitate was observable in each sample. Samples were transferred back to their respective filter devices and centrifuged for an additional 5 min Samples were then collected by inversion of the filters into clean tubes and centrifuging for 2 min at 1000×g to yield about 37 μL of retentate (corresponding to >280 mg/mL protein based on a total initial concentration of 10.5 mg protein).
The samples were vortexed and incubated for 1 hr at room temperature to equilibrate liquid and solid phases followed by centrifugation for 10 min at 14,000×g. Again, no visible precipitate was observed. Two-three 10 μL aliquots were taken from the supernatant of each sample (depending on available volume of the liquid phase), and diluted 1:1000 in two steps. Protein concentration was measured by UV absorbance at 280 nm, and the maximum protein solubility was calculated according to a highly reproducible calibration curve. The calibration curve was prepared by dissolving 6.8 mg of Myozyme® (alglucosidase alpha) lyophilized powder (containing 1.16 mg protein) in 1.16 mL of water followed by a serial dilution in deionized water. Absorbance was measured at 280 nm in a 1 cm light-pass quartz semi-micro cuvette using 0.5 mL aliquots.

In series [2] the test system is GAA KO mice. As to the kind of experiment: Tissue GAA activity after repeat SQ with varying 1-DNJ (Example 16). The class given is in vivo, mouse. To be noted: Lumizyme 20 mg/kg SQ alone, 4 doses, 3 days after last dose. As for the experimental part: (§1) 14-week old male GAA KO mice in groups of 7 were used in the present study. Each group of mice was administered one of the following treatments:
(2) Lumizyme® alone (20 mg/kg) delivered subcutaneously (SQ);
(3) Co-formulated Lumizyme® (20 mg/kg) and 1-DNJ (3 mg/kg) SQ.
(4) Co-formulated Lumizyme® (20 mg/kg) and 1-DNJ (10 mg/kg) SQ.
(5) Co-formulated Lumizyme® (20 mg/kg) and 1-DNJ (30 mg/kg) SQ.
(§2) Each of the treatments was administered to their respective treatment group for a period of 2 weeks. The treatments were administered on Monday and Thursday of each week. SQ injections were administered between the shoulder blades of each mouse receiving treatment. A total of 4 doses were administered to each study animal.
(§3) Tissue samples were collected to determine rhGAA uptake 3 days following the last dose of the study (i.e., 3 days post dose 4). Tissue samples included heart, tongue, diaphragm, triceps, quads, gastrocnemius, ventral skin and dorsal skin from the SQ injection site. Tissue samples were also collected to determine glycogen concentration 14 days following the last dose of the study (i.e., 14 days post dose 4).
(§4) FIGS. 47-54 show tissue GAA activity 3 days following the final administration, and glycogen levels 14 days following the final administration. GAA activities in tissues were determined using a 4-MUG fluorogenic substrate assay. Glycogen levels were determined using a glycogen assay (see Example 9 for method). Lumizyme® alone administered subcutaneously led to uptake of enzyme in all investigated tissues following repeat administrations.

The subject of series [3] is GAA KO mice. As to the kind of experiment: Tissue glycogen reduction after repeat SQ with varying 1-DNJ (Example 16). The class given is in vivo, mouse. The note with it: Lumizyme 20 mg/kg SQ alone, 4 administrations, 14 days after last. As for the experimental part: as §1, §2, §3, §4

As to “Lumizyme®: alglucosidase alfa, recombinant human acid α-glucosidase from Genzyme Corporation”, the Protein solubility in series [1] (Arginine 100 mM, 1-DNJ-HCl 32 mg/mL) turned out to be 201 mg/mL; in series [1] (Arginine + Glutamic acid 50 mM + 50 mM, 1-DNJ-HCl 160 mg/mL), 242 mg/mL; in series [1] (Gamma-cyclodextrin 10% (w/v), 1-DNJ-HCl 160 mg/mL), 114 mg/mL; in series [1] (PEG400 5% (w/v), 1-DNJ-HCl 160 mg/mL), 158 mg/mL; in series [1] (Proline 250 mM, 1-DNJ-HCl 160 mg/mL), 195 mg/mL. For the same substance, the “GAA Activity” value in the series on GAA KO mice [2] (Biceps) was 45.9 nmol/mg/h; in the series on GAA KO mice [2] (Diaphragm) it was 10.6 nmol/mg/h; with GAA KO mice [2] (Gastrocnemius) it was 1 nmol/mg/h; in the series with GAA KO mice [2] (Heart), 1.9 nmol/mg/h; with GAA KO mice [2] (Quadriceps) it was 1.3 nmol/mg/h; in the series with GAA KO mice [2] (Skin) it was 43.9 nmol/mg/h. Further, the entries for the “GAA Activity” value in the series on GAA KO mice [2] (Soleus), with GAA KO mice [2] (Tongue) and in the series with GAA KO mice [2] (Triceps) were 0.9 nmol/mg/h, 2.3 nmol/mg/h and 151.3 nmol/mg/h, respectively. The “Glycogen (% Reduction)” value in the series with GAA KO mice [3] (Biceps) was found to be 45%; with GAA KO mice [3] (Diaphragm) it was 8%; in the series on GAA KO mice [3] (Gastrocnemius) it was 10%; with GAA KO mice [3] (Heart), 15%; in the series on GAA KO mice [3] (Quadriceps), 9%; in the series on GAA KO mice [3] (Skin), 15%. The figures for the “Glycogen (% Reduction)” value in the series with GAA KO mice [3] (Tongue) and in the series on GAA KO mice [3] (Triceps) were 10% and 64%, respectively.
